The values below come from US20220378931A1 (Eli Lilly, published 2022).

The Ki is a dissociation constant, usually derived from enzyme kinetics or from competition with a known ligand. In general, Kd refers to the constant that tells how readily two partners part at equilibrium. As usually defined, the koff is the rate constant with which the complex falls apart. Broadly, the kon is the second-order rate constant of association.

Test [1] has as its target T1, human insulin receptor isoform A with C-terminal C9 tag (human, UniProt P06213 28-1382).
T1 construct: membranes of stably transfected HEK293 cells; also called hIR-A; human IR-A
The test can be described thus: 125I-insulin competition SPA, hIR-A membranes, 0.001% NP-40. How it is done:
(§1) The assays are performed with a SPA method using polyvinyltoluene (PVT) wheat germ agglutinin-coupled SPA beads (Perkin Elmer). Assay buffer contains 50 mM Tris-HCl, pH 7.5, 150 mM NaCl and either A) 0.1% w/v fatty-acid free BSA; B) 0.1% w/v fatty-acid free human serum albumin (HSA); C) 0.1% w/v rat serum albumin (RSA); or D) 0.001% Nonidet P-40 Substitute (NP-40, Roche Diagnostics). Ten-point concentration response curves using three-fold serial dilutions of test samples or controls are prepared in Assay Buffer using a Freedom/Evo robot (Tecan).
(§2) Percent specific inhibition (y-axis) is plotted versus the log concentration of compound (x-axis). […] Reported Ki values are shown as the geometric mean with the standard error (Delta Method Standard Error) and the number of independent replicate determinations used to calculate the geometric mean indicated by n.

Test [2] concerns the target T2, rabbit serum albumin (rabbit, UniProt P49065 25-608).
T2 construct: bought protein, amine-coupled to a CM5 chip; also called Rabbit SA
In words: SPR (Biacore 8K), albumin immobilised, 25 C. The procedure: (§3) Immobilization of serum albumin to a Series S Sensor Chip CM5 surface is performed according to the manufacturer's instructions (Amine Coupling Kit BR-1000-50). Briefly, carboxyl groups on the sensor chip surfaces (flow cell 1 and 2) are activated by injecting 70 μL of a mixture containing 75 mg/ml EDC and 11.5 mg/ml NHS at 10 μL/min. Human, cynomolgus monkey, mouse, rat, pig, dog, cow and rabbit serum albumin are diluted in 10 mM NaOAc pH 4.0 (BR-1003-49) at 1, 1, 3, 1, 1, 1, 1 and 1 μg/mL and then injected over the activated chip surfaces (flow cell 2, […]) at 10 μL/min for 90 sec (human, mouse, rat, pig and cow serum albumin are obtained from Sigma Aldrich (St. Louis, Mo.); cynomolgus monkey serum albumin is obtained from Holzel Diagnostika (Cologne, Germany); dog serum albumin is obtained from Molecular Innovations (Novi, Mich.); and rabbit serum albumin is obtained from Fitzgerald Industries International (Acton, Mass.)). […] Excess reactive groups on the surfaces (flow cell 1 and 2) are deactivated by injecting 70 μL of 1 M ETA HCl—NaOH pH 8.5 at 10 μL/min.
(§4) 150 μL of sample is individually injecting sequentially across the immobilized serum albumins surface and then dissociates for 600 sec at 50 μL/min flow rate at 25° C. The surface is regenerated by injecting 10 mM glycine-HCl pH 1.5 (BR-1003-54) at 50 μL/min for 100 sec. The resulting sensorgrams are analyzed using Biacore 8K Insight Evaluation Software (version 2.0.15.12933) 1:1 binding kinetics or steady-state affinity model fitting to calculate the binding kinetic parameter association rate (ka), dissociation rate (kd), and equilibrium dissociation constant (KD)

The target in test [3] is T3, human serum albumin (human, UniProt P02768 25-609).
T3 construct: bought protein, amine-coupled to a CM5 chip; also called Human SA; HSA
In words: SPR (Biacore 8K), albumin immobilised, 25 C, 1:1 kinetics. How it is done: as §3, §4

The target of test [4] is T4, cynomolgus monkey serum albumin (cynomolgus monkey, UniProt A2V9Z4 25-608).
T4 construct: bought protein, amine-coupled to a CM5 chip; also called Cyno SA
The description is as above. The procedure:
as §3, §4

Test [5] concerns the target T5, rat serum albumin (rat, UniProt P02770 25-608).
T5 construct: bought protein, amine-coupled to a CM5 chip; also called Rat SA; RSA
The description is as above. How it is done:
as §3, §4

Test [6] has as its target T6, pig serum albumin (pig, UniProt P08835 25-607).
T6 construct: bought protein, amine-coupled to a CM5 chip; also called Pig SA
Described as above. How it is done:
as §3, §4

Test [7] deals with T7, dog serum albumin (dog, UniProt P49822 25-608).
T7 construct: bought protein, amine-coupled to a CM5 chip; also called Dog SA
Described as above. How it is done:
as §3, §4

The target in test [8] is T8, mouse serum albumin (mouse, UniProt P07724 25-608).
T8 construct: bought protein, amine-coupled to a CM5 chip; also called Mouse SA
The description is as above. How it is done:
as §3, §4

The target in test [9] is T1, human insulin receptor isoform A with …. In words: 125I-insulin competition SPA, hIR-A membranes, 0.1% BSA. How it is done:
as §1, §2

Test [10] addresses T9, cow serum albumin (cow, UniProt P02769 25-607).
T9 construct: bought protein, amine-coupled to a CM5 chip; also called Cow SA; Bovine SA
The test can be described thus: SPR (Biacore 8K), albumin immobilised, 25 C, steady-state affinity. How it is done: as §3, §4
On the technique in general: Surface plasmon resonance follows binding to a sensor surface in real time, without labels.

B1: INS Analog 23 (other)
chain: FVSQHLCGSHLVEALHLVCGERGFHYTPKTGGGGGGGIVEQCCHSICSLEQLENYCGGGGGQGGGGQGGGGQGGGGQGGGGQEVQLLESGGGLVQPGGSLRLSCAASGRYIDETAVAWFRQAPGKEREFVAGIGGGVDITYYADSVKGRFTISRDNSKNTLYLQMNSLRPEDTAVYYCAARPGRPLITSKVADLYPYWGQGTLVTVSSPP
notes: single-chain insulin B-L2-A-L1-VHH fusion; also called Ex. 23
Regarding B1, the results for the Ki in [1] and in test [9] were 0.0189 µM and 0.0551 µM, respectively. Also, the binding result in test [2] is “no binding (tested: up to 1000 nM)”. Besides, the Kd in [3] is 0.00073 µM; in [4] it was 0.0068 µM; in [5], 0.053 µM; in [6], 0.13 µM; in [7], 0.023 µM; in [8], 0.076 µM. Besides, in [10], the Kd amounted to 0.59 µM. The koff in test [3] worked out at 9e-05 s⁻¹; in [4], 0.00084 s⁻¹; in test [5] it was 0.0065 s⁻¹; in [6], 0.012 s⁻¹; in test [7] it was 0.0033 s⁻¹; in [8], 0.0093 s⁻¹. In addition, the kon in test [3] amounted to 120000 M⁻¹ s⁻¹; in test [4], 120000 M⁻¹ s⁻¹; in test [5], 120000 M⁻¹ s⁻¹; in [6] it was 95000 M⁻¹ s⁻¹; in [7], 140000 M⁻¹ s⁻¹; in test [8], 120000 M⁻¹ s⁻¹.

B2: INS Analog 27 (other)
chain: FVSQHLCGSHLVEALRLVCGERGFFYTPKTGGGGGGGIVEQCCHSICSLYQLENYCGGGGGQGGGGQGGGGQGGGGQGGGGQEVQLLESGGGLVQPGGSLRLSCAASGRYIDETAVAWFRQAPGKEREFVAGIGGGVDITYYADSVKGRFTISRDNSKNTLYLQMNSLRPEDTAVYYCAARPGRPLITSKVADLYPYWGQGTLVTVSSPP
notes: single-chain insulin B-L2-A-L1-VHH fusion; also called Ex. 27
Turning to B2, the Ki amounted to 0.0505 µM in test [1] and 0.103 µM in [9]. The binding result in [2] is “no binding (tested: up to 1000 nM)”. Besides, the dissociation constant Kd in [3] amounted to 0.00075 µM; in test [4], 0.0047 µM; in [5], 0.032 µM; in test [6], 0.09 µM; in test [7], 0.017 µM; in test [8] it was 0.045 µM. The same molecule yielded a Kd in test [10] of 0.39 µM. The koff in test [3] was 0.00013 s⁻¹; in [4], 0.00078 s⁻¹; in test [5], 0.0061 s⁻¹; in [6], 0.01 s⁻¹; in [7], 0.003 s⁻¹; in test [8] it was 0.0079 s⁻¹. For the same molecule, the kon in test [3] was 170000 M⁻¹ s⁻¹; in [4], 170000 M⁻¹ s⁻¹; in test [5], 190000 M⁻¹ s⁻¹; in [6], 120000 M⁻¹ s⁻¹; in test [7] it was 180000 M⁻¹ s⁻¹; in test [8] it was 170000 M⁻¹ s⁻¹.

B3: INS Analog 24 (other)
chain: FVSQHLCGSHLVEALHLVCGERGFHYTPKTGGGGGGGIVEQCCHSICSLEQLENYCGPGPQPGPQPGPQPGPQPGPQPGPQPGPQPGPQEVQLLESGGGLVQPGGSLRLSCAASGRYIDETAVAWFRQAPGKEREFVAGIGGGVDITYYADSVKGRFTISRDNSKNTLYLQMNSLRPEDTAVYYCAARPGRPLITSKVADLYPYWGQGTLVTVSSPP
notes: single-chain insulin B-L2-A-L1-VHH fusion; also called Ex. 24
Consider B3, for which the Ki in test [1] came to 0.0218 µM; in [9] it was 0.0568 µM. In test [2], the binding result is recorded as “no binding (tested: up to 1000 nM)”. Also, the Kd in [3] stood at 0.00091 µM; in test [4], 0.0055 µM; in [5] it was 0.04 µM; in test [6], 0.1 µM; in test [7], 0.016 µM; in test [8] it was 0.049 µM. Further, the Kd in test [10] was determined as 0.43 µM. Besides, the koff was found to be 0.00012 s⁻¹ in test [3]; 0.00075 s⁻¹ in [4]; 0.0057 s⁻¹ in test [5]; 0.011 s⁻¹ in [6]; 0.0024 s⁻¹ in [7]; 0.0073 s⁻¹ in test [8]. The kon in [3] was found to be 140000 M⁻¹ s⁻¹; in test [4], 130000 M⁻¹ s⁻¹; in [5], 140000 M⁻¹ s⁻¹; in test [6] it was 100000 M⁻¹ s⁻¹; in [7], 150000 M⁻¹ s⁻¹; in test [8], 150000 M⁻¹ s⁻¹.

B4: INS Analog 28 (other)
chain: FVSQHLCGSHLVEALRLVCGERGFFYTPKTGGGGGGGIVEQCCHSICSLYQLENYCGPGPQPGPQPGPQPGPQPGPQPGPQPGPQPGPQEVQLLESGGGLVQPGGSLRLSCAASGRYIDETAVAWFRQAPGKEREFVAGIGGGVDITYYADSVKGRFTISRDNSKNTLYLQMNSLRPEDTAVYYCAARPGRPLITSKVADLYPYWGQGTLVTVSSPP
notes: single-chain insulin B-L2-A-L1-VHH fusion; also called Ex. 28
Take B4: the values for the Ki in [1] and in test [9] were 0.0327 µM and 0.071 µM, respectively. Also, the binding result in [2] is listed as “no binding (tested: up to 1000 nM)”. In addition, the Kd in [3] was found to be 0.00073 µM; in test [4] it was 0.0041 µM; in [5], 0.026 µM; in [6], 0.075 µM; in [7] it was 0.012 µM; in test [8], 0.037 µM. Moreover, in test [10], the Kd was found to be 0.4 µM. The koff turned out to be 0.00012 s⁻¹ in test [3]; 0.00067 s⁻¹ in test [4]; 0.0048 s⁻¹ in [5]; 0.0084 s⁻¹ in [6]; 0.0021 s⁻¹ in test [7]; 0.006 s⁻¹ in [8]. Besides, the kon in [3] amounted to 160000 M⁻¹ s⁻¹; in test [4] it was 170000 M⁻¹ s⁻¹; in test [5] it was 180000 M⁻¹ s⁻¹; in test [6] it was 110000 M⁻¹ s⁻¹; in [7], 170000 M⁻¹ s⁻¹; in [8] it was 160000 M⁻¹ s⁻¹.
